The text below walks through data of article PMC10275983.

The target in the assay is S1 (Novus Biologicals NBP2-90985) (SARS-CoV-2), P0DTC2. The assay can be described thus: AlphaScreen or HTRF. For orientation: Alpha assays give light when donor and acceptor beads are brought close together.

“And” between values parts separate entries of the source, which are not always exact repeats. Identical values can stand only once.

As usually defined, the IC50 is the concentration needed to halve the response being measured. Read a low IC50 as greater potency in that assay. With ACEDNDWVYCSTCA (modifications not checked) [BCY15231 (E3)], the IC50 was 310 nM and 400 nM. As to ACEYVGPMCYRLYCA (modifications not checked) [BCY15354 (E1)], the IC50 is 360 nM and 1600 nM and 550 nM. In turn, ACMNPFFYDCETVCA (modifications not checked) [BCY16207 (E9)] had an IC50 of 1100 nM.
